Target: human CD40 (human) (UniProt P25942)
Test: flow cytometry on PATHHUNTER U2OS-NIK/NFkB reporter cells; isotype control; beside it Unstained 56.7 and hCD40-APC 16805

human CD40 (human), sequence (P25942 21-277): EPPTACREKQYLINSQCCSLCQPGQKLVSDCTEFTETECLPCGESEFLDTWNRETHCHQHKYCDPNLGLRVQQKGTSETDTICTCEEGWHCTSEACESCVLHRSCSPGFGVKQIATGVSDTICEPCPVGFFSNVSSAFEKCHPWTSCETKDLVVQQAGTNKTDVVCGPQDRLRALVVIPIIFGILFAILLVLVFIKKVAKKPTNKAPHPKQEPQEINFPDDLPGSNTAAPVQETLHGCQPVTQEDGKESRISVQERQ

## APC Isotype (antibody)
  MFI-APC: 2160

From patent US20220259281A1
